Biological target: Pre-formed aBeta fibrils (UniProt P05067 672-713)
Test: ELISA

B1: gantenerumab (antibody, V domains shown)
VH: QVELVESGGGLVQPGGSLRLSCAASGFTFSSYAMSWVRQAPGKGLEWVSAINASGTRTYYADSVKGRFTISRDNSKNTLYLQMNSLRAEDTAVYYCARGKGNTHKPYGYVRYFDVWGQGTLVTVSS
VL: DIVLTQSPATLSLSPGERATLSCRASQSVSSSYLAWYQQKPGQAPRLLIYGASSRATGVPARFSGSGSGTDFTLTISSLEPEDFATYYCLQIYNMPITFGQGTKVEIK
EC50: 0.702 nM

From patent US20260158147A1 (published 2026)
